According to patent publication US6730828B1, “Isolated nucleic acids encoding a wheat glutathione transferase, plants transformed therewith and methods of use thereof” (Aventis Agriculture Limited, priority 1997, dated 2004):

How the values were obtained:
[1] = GST activity toward CDNB; type: biochemical
Description: (§1) The purified isoenzymes were assayed for GST activity toward herbicides using the HPLC-based assays described by Edwards R. and Cole D. J. (Pesticide Biochemistry and Physiology Vol. 54, pp96-104 (1996)) and the results are presented in Table 2. […] These isoenzymes had additional activities as glutathione peroxidases able to reduce linoleic acid hydroperoxide, a major reaction product formed during membrane peroxidation in plants (Williamson and Beverly. J. Cereal Sci. 8, 1988, 155-163).
To confirm that TaGST1 encoded a GST, it was expressed as a fusion protein with beta-galactosidase using the pBluescript plasmid in E. coli strain SOLR. TaGST1 clones were inoculated into LB liquid medium and were grown overnight at 37/C on all orbital shaker in the presence of IPTG. Bacteria were then pelleted by centrifugation, lysed by sonication and assayed for GST activity toward CDNB and analysed by SDS-PAGE and Western blotting using the anti-TaGSTI-I serum. With all six TaGST1 clones, GST activity toward CDNB could be determined in the crude extracts in the range 30-50 nkat/mg crude lysate.
(§2) To assay the recombinant fusion proteins for GST activity, the E. coli were grown in the presence of IPTG and then pelleted by centrifugation. The bacteria were then lysed by sonication and the protein precipitated using 80% ammonium sulphate. After resuspension and desalting, GSTs were purified by affinity chromatography. The WIC 3 fusion protein was purified using sulphobromophthalein-S-glutathione affinity chromatography (Mozer et al. Biochem. 22, 1983, 1068-1072) while the other WIC fusion proteins were purified using glutathione-agarose (Mannervik and Guthenberg. Methods Enzymol. 77 1981, 231-235).The purified enzymes were then assayed for GST activities toward herbicides (Table 3) and GST activities toward non-herbicide substrates and glutathione peroxidase activities toward organic hydroperoxides (Table 4).
A polyclonal antiserum was raised in a rabbit to a mixture of TaGST1-2 and TaGST1-3. When tested against crude extracts from safener-treated wheat shoots the antiserum recognised both the 25 kDa TaGST1 subunit and the 26 kDa safener-inducible TaGST2 and TaGST3 subunits. The antiserum was then used in conjunction with the antiserum raised to TaGST1-1 to immuno screen the cDNA library prepared from fenchlorazole ethyl treated wheat shoots as described in example 1. Duplicate lifts were taken from the plated out library and the first blot screened with the antiserum raised against TaGST1-2 and TaGST1-3. The second blot was screened with the antiserum raised to TaGST1-1. Five plaques were identified from the first blot which were absent from the second blot corresponding to cDNAs encoding TaGST2 or TaGST3 like polypeptides and theses clones were purified and the respective plasmids sequenced. […] The other three clones ICC. ICP and ICV had identical DNA sequences (SEQ ID No. 17) and predicted amino acid sequence (SEQ ID No. 18). GST ICJ was sub-cloned into the pET 11a vector after using PCR to introduce a Nde 1 restriction site into the translation start site, using the primer 5′ AGGTAGTTACATATGGCCGGAGGA 3′ (SEQ ID No. 19) in the amplification. following sub-cloning, the sequence of GST ICJ was re-checked to ensure no PCR induced errors had been introduced. The recombinant GST ICJ was then expressed in E. coli and purified by S-hexylglutathione affinity chromatography. The purified GST ICJ was assayed for activities as a GST (Table 3) and as a glutathione peroxidase (Table 4). […] GST ICV was finally expressed as the respective beta-galactosidase fusion protein using the Bluescript plasmid and assayed for GST activity (Table 3 ) and glutathione peroxidase activity (Table 4) in crude bacterial lysates. […]

[2] = GST activity toward herbicide fluorodifen (HPLC-based assay); type: biochemical
Description: as §1, §2
(§3) A polyclonal antiserum was raised in a rabbit to a mixture of TaGST1-2 and TaGST1-3. When tested against crude extracts from safener-treated wheat shoots the antiserum recognised both the 25 kDa TaGST1 subunit and the 26 kDa safener-inducible TaGST2 and TaGST3 subunits. The antiserum was then used in conjunction with the antiserum raised to TaGST1-1 to immuno screen the cDNA library prepared from fenchlorazole ethyl treated wheat shoots as described in example 1. Duplicate lifts were taken from the plated out library and the first blot screened with the antiserum raised against TaGST1-2 and TaGST1-3. The second blot was screened with the antiserum raised to TaGST1-1. Five plaques were identified from the first blot which were absent from the second blot corresponding to cDNAs encoding TaGST2 or TaGST3 like polypeptides and theses clones were purified and the respective plasmids sequenced. […] The other three clones ICC. ICP and ICV had identical DNA sequences (SEQ ID No. 17) and predicted amino acid sequence (SEQ ID No. 18). GST ICJ was sub-cloned into the pET 11a vector after using PCR to introduce a Nde 1 restriction site into the translation start site, using the primer 5′ AGGTAGTTACATATGGCCGGAGGA 3′ (SEQ ID No. 19) in the amplification. following sub-cloning, the sequence of GST ICJ was re-checked to ensure no PCR induced errors had been introduced. The recombinant GST ICJ was then expressed in E. coli and purified by S-hexylglutathione affinity chromatography. The purified GST ICJ was assayed for activities as a GST (Table 3) and as a glutathione peroxidase (Table 4). […] GST ICV was finally expressed as the respective beta-galactosidase fusion protein using the Bluescript plasmid and assayed for GST activity (Table 3 ) and glutathione peroxidase activity (Table 4) in crude bacterial lysates. The specific activity of GST ICV toward these substrates was then calculated by I) subtracting the low levels of GST and GPOX activity present due the endogenous activities in the E. coli and ii) determining the proportion of protein in the lysate present as recombinant GST ICV from SDS-PAGE analysis, by densitometry analysis of polypeptides stained with Coomassie blue.

[3] = GST activity toward herbicide fenoxaprop-ethyl (HPLC-based assay); type: biochemical
Description: as §1, §2, §3

[4] = GST activity toward herbicide metolachlor (HPLC-based assay); type: biochemical
Description: as §1, §2, §3

[5] = Glutathione peroxidase activity toward cumene hydroperoxide; type: biochemical; conditions: recombinant wheat GST, affinity purified; ± standard error (n = 3)
Description: as §2, §3

[6] = GST activity toward benzyl isothiocyanate; type: biochemical; conditions: recombinant wheat GST, affinity purified; ± standard error
Description: as §2

[7] = GST activity toward crotonaldehyde; type: biochemical; conditions: recombinant wheat GST, affinity purified; ± standard error
Description: as §2

[8] = system: wheat shoots; assay: Enhancement of GST isoenzyme expression in wheat shoots by safener fenchlorazole-ethyl; type: in vivo, Triticum aestivum L. var. Hunter; conditions: for % enhancement by safener: fenchlorazole-ethyl treated (safened) versus unsafened wheat shoots; for Effect of safener fenchlorazole-ethyl on expression: wheat shoots, in words
Description: Wheat seeds (Triticum aestivum L. var. Hunter) were imbibed in a 10 mg/l solution of the herbicide safener fenchlorazole-ethyl and then grown in an environmental growth room with further root-applied watering treatments of 5 mg/l fenchlorazole ethyl applied as required. At 10 days after imbibing, the shoot tissue was harvested and extracted prior to precipitation of the protein with ammonium sulphate (80% saturation). The total protein extract was then applied in the presence of 1 M ammonium sulphate to a phenyl-Sepharose column. The bound GSTs were then recovered, firstly by reducing the ammonium sulphate concentration to 0 M to yield the polar GST fraction, which represented 61% of the recovered activity toward 1-chloro-2,4-dinitrobenzene (CDNB). The remaining 39% of the GST activity was then recovered by adding ethylene glycol (50% v/v) to the running buffer to yield the hydrophobic GST fraction. […] The component polypeptides in the active fractions were then analysed by silver staining after resolution by sodium dodecyl sulphate polyacrylamide gel electrophoresis (SDS-PAGE). It was concluded that in fenchlorazole-ethyl-treated wheat the polar GSTs were composed of 25 kDa and 26 kDa polypeptides, while the hydrophobic fraction contained 25 kDa, 26 kDa and 24 kDa polypeptides. Further analysis by reversed-phase HPLC confirmed the subunit compositions (FIG. 2). Based on the combined analyses by Q-sepharose, HPLC and SDS-PAGE these GST polypeptides were named as described in Table 1, which also contains details of how these subunits associate together to form the active dimers found in plants and the relative abundance of these subunits in extracts from unsafened and fenchlorazole-ethyl treated ([…]) plants.

[9] = recombinant wheat GST expressed in E. coli, affinity purified
[10] = recombinant wheat GST expressed in E. coli, affinity purified, ± standard error
[11] = isoenzymes purified from fenchlorazole-ethyl-treated wheat shoots

| Molecule | % enhancement by safener [8] | GST activity toward CDNB [1, 9] [nkat.mg^−1] | GST activity toward fluorodifen [2, 10] [nkat.mg^−1] | GST activity toward fenoxaprop-ethyl [3, 10] [nkat.mg^−1] | GST activity toward metolachlor [4, 10] [nkat.mg^−1] | Glutathione peroxidase activity toward cumene hydroperoxide [5] | GST activity toward benzyl isothiocyanate [6] [nkat.mg^−1] | GST activity toward crotonaldehyde [7] [nkat.mg^−1] | GST activity toward CDNB [1, 11] | GST activity toward fluorodifen [2, 11] [nkat.mg^−1] | GST activity toward fenoxaprop-ethyl [3, 11] [nkat.mg^−1] | GST activity toward metolachlor [4, 11] [nkat.mg^−1] | Effect of safener fenchlorazole-ethyl on expression [8] |
| --- | --- | --- | --- | --- | --- | --- | --- | --- | --- | --- | --- | --- | --- |
| WIC 1: recombinant type I wheat GST, SEQ ID No. 3, amino acid SEQ ID No. 4 (protein, Triticum aestivum L.) MAAPAVKVYGWAMSPFVARALLCLEEAGVEYELVPMSREAGDHRQPDFLARNPFGQVPVLEDGDLTIFESRAVARHVLRKHKPELLGSGSPESAAMVDVWLEVEAHQHQTPAGTIVMQCILTPFLGCQRDQAAIDENAAKLTNLFDVYEARLSASRYLAGEAVSLADLSHFPFMRYFMDTEYASLVEERPHVKAWWEEFKASPAAKRVTEFMPPNFGFGKKAEK | – | 406.5 | 0.136 ± 0.011 | 0.050 ± 0.010 | 0.315 ± 0.003 | 18.6 ± 0.5 absorbance change at 340 nm.mg^−1 | 18.0 ± 3.75 | 7.1 ± 0.7 | – | – | – | – | – |
| TaGST1: recombinant wheat GST from TaGST1 cDNA (SEQ ID No. 1, amino acid SEQ ID No. 2) expressed in E. coli (protein, Triticum aestivum L.) MAGEKGLVLLDFWVSPFGQRVRIALAEKGLPYEYAEEDLMAGKSDRLLRANPVHKKIPVLLHDGRAVNESLIILQYLEEAFPDAPALLPSDPYARAQARFWADYVDKKVYDCGSRLWKLKGEPQAQARAEMLDILKTLDGALGDKPFFGGDKFGFVDAAFAPFTAWFHSYERYGEFSLPEVAPKIAAWAKRCGERESVAKSLYSPDKVYDFIGLLKKKYGIE | – | 1970 | 2.0 ± 0.1 | 0 | 0.127 ± 0.014 | 0.7 ± 0.1 absorbance change at 340 nm.mg^−1 | 11.8 ± 0 | 3.7 ± 0.3 | – | – | – | – | – |

Continued, in another order:

| % enhancement by safener [8] | Molecule | GST activity toward CDNB [1, 9] [nkat.mg^−1] | GST activity toward fluorodifen [2, 10] [nkat.mg^−1] | GST activity toward fenoxaprop-ethyl [3, 10] [nkat.mg^−1] | GST activity toward metolachlor [4, 10] [nkat.mg^−1] | Glutathione peroxidase activity toward cumene hydroperoxide [5] | GST activity toward benzyl isothiocyanate [6] [nkat.mg^−1] | GST activity toward crotonaldehyde [7] [nkat.mg^−1] | GST activity toward CDNB [1, 11] | GST activity toward fluorodifen [2, 11] [nkat.mg^−1] | GST activity toward fenoxaprop-ethyl [3, 11] [nkat.mg^−1] | GST activity toward metolachlor [4, 11] [nkat.mg^−1] | Effect of safener fenchlorazole-ethyl on expression [8] |
| --- | --- | --- | --- | --- | --- | --- | --- | --- | --- | --- | --- | --- | --- |
| Only | TaGST1-2: wheat GST isoenzyme, heterodimer of TaGST1 and 26 kDa TaGST2 subunits (SEQ ID No. 2/SEQ ID No. 16) (protein, heterodimer; Triticum aestivum L.) chain 1: MAGEKGLVLLDFWVSPFGQRVRIALAEKGLPYEYAEEDLMAGKSDRLLRANPVHKKIPVLLHDGRAVNESLIILQYLEEAFPDAPALLPSDPYARAQARFWADYVDKKVYDCGSRLWKLKGEPQAQARAEMLDILKTLDGALGDKPFFGGDKFGFVDAAFAPFTAWFHSYERYGEFSLPEVAPKIAAWAKRCGERESVAKSLYSPDKVYDFIGLLKKKYGIE chain 2: MAGDGELKLLGVWTSPFVIRVRVVLNLKSLPYEYVEESLGSKSALLLGSNPVHQSVPVLLHGGRPVNESQVIVQYIDEVWAGAGPSVLPADPYERATARFWAAYVDDKVGSAWTGMLFSCKTEEERAEAVSRAVAALETLEGAFAECSKGKAFFGGDAIGFVDVVLGGYLGWFGAIDKIIGRRLIDPARTPLLARWEERFRAADAAKGVVPDDADKMLEFLPTVLAWIAGKAK | – | – | – | – | – | – | – | 1,441 nkat.mg^−1 | 0.38 | 0.61 | 0.25 | only observed following treatment with the safener |
| Only | TaGST1-3: wheat GST isoenzyme, heterodimer of TaGST1 and 26 kDa TaGST3 subunits (SEQ ID No. 2/SEQ ID No. 18) (protein, heterodimer; Triticum aestivum L.) chain 1: MAGEKGLVLLDFWVSPFGQRVRIALAEKGLPYEYAEEDLMAGKSDRLLRANPVHKKIPVLLHDGRAVNESLIILQYLEEAFPDAPALLPSDPYARAQARFWADYVDKKVYDCGSRLWKLKGEPQAQARAEMLDILKTLDGALGDKPFFGGDKFGFVDAAFAPFTAWFHSYERYGEFSLPEVAPKIAAWAKRCGERESVAKSLYSPDKVYDFIGLLKKKYGIE chain 2: MAGGEELKLLGWWAPGVSPYVLRAQMALAVKGLSYDYLPEDRWSTSDLLIASNPVYKKVPVLIHNGRPVCESLLILEYLDDAVGLAGNGKPILPADPYSRAVARFWAAYVNDKLFPSCTGILKTTKQEERAGKMEETLSGLRHLEAVMAECSEGEAEAPFFGGDAIGFLDIALGCYLPWFEAAGRLAGLGPIIDPARTPKLAAWAERFSVAEPIKALLPGVDKLEEYITTALYPKWNIAVTGN | – | – | – | – | – | – | – | 1,700 nkat.mg^−1 | 0.38 | 0.44 | 0.28 | only observed following treatment with the safener |
